# Laboratory results from patent US20140322233A1 (Takeda / Millennium, published 2014).
# T1: mouse GCC (mouse, UniProt Q3UWA6 20-433, limits assumed)
# T1 construct: Construct used for the cross-reactivity test is not described
# T1 sequence (looked up): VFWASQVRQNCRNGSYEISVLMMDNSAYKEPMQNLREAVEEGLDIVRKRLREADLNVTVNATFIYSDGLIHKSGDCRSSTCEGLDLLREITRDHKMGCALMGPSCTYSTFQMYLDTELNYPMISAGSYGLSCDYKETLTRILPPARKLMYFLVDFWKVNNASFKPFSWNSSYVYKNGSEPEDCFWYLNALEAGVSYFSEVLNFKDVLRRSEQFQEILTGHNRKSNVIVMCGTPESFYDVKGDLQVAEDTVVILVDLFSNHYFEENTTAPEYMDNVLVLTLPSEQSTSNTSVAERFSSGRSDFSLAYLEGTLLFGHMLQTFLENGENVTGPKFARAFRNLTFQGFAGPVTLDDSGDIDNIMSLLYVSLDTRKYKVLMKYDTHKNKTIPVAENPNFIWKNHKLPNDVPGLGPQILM
# T2: rat GCC (rat, UniProt P23897 23-429, limits assumed)
# T2 construct: Construct used for the cross-reactivity test is not described
# T2 sequence (looked up): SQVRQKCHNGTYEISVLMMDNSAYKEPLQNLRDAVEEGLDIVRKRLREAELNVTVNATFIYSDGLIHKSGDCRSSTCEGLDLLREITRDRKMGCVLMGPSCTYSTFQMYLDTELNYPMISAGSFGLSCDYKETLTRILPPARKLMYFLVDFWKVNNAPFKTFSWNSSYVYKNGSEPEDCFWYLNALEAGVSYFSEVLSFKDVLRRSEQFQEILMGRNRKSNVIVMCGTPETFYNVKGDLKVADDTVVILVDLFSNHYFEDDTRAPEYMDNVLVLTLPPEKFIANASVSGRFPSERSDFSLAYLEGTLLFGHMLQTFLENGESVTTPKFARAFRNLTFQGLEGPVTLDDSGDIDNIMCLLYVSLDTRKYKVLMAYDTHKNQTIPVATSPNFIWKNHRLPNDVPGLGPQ
# B1: mAb 5F9 (antibody, V domains shown)
# VH: QVQLQQWGAGLLKPSETLSLTCAVFGGSFSGYYWSWIRQPPGKGLEWIGEINHRGNTNDNPSLKSRVTISVDTSKNQFALKLSSVTAADTAVYYCARERGYTYGNFDHWGQGTLVTVSS
# VL: EIVMTQSPATLSVSPGERATLSCRASQSVSRNLAWYQQKPGQAPRLLIYGASTRATGIPARFSGSGSGTEFTLTIGSLQSEDFAVYYCQQYKTWPRTFGQGTNVEIK
# notes: Human; hybridoma product is IgG2, kappa; also called 46.5F9.8.2; Prep A 5F9
# Key:
# [1] = biological target: T3, human GCC, full length with myc tag (293-GCC#2 cells) (human, UniProt P25092 24-1073); test: indirect immunofluorescence flow cytometry, 293 GCC #2 cells;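 note: cells exposed to the test antibodies for 1 h on ice before flow cytometric readout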
# T3 construct: not shown: myc tag
# T3 sequence (P25092 24-1073): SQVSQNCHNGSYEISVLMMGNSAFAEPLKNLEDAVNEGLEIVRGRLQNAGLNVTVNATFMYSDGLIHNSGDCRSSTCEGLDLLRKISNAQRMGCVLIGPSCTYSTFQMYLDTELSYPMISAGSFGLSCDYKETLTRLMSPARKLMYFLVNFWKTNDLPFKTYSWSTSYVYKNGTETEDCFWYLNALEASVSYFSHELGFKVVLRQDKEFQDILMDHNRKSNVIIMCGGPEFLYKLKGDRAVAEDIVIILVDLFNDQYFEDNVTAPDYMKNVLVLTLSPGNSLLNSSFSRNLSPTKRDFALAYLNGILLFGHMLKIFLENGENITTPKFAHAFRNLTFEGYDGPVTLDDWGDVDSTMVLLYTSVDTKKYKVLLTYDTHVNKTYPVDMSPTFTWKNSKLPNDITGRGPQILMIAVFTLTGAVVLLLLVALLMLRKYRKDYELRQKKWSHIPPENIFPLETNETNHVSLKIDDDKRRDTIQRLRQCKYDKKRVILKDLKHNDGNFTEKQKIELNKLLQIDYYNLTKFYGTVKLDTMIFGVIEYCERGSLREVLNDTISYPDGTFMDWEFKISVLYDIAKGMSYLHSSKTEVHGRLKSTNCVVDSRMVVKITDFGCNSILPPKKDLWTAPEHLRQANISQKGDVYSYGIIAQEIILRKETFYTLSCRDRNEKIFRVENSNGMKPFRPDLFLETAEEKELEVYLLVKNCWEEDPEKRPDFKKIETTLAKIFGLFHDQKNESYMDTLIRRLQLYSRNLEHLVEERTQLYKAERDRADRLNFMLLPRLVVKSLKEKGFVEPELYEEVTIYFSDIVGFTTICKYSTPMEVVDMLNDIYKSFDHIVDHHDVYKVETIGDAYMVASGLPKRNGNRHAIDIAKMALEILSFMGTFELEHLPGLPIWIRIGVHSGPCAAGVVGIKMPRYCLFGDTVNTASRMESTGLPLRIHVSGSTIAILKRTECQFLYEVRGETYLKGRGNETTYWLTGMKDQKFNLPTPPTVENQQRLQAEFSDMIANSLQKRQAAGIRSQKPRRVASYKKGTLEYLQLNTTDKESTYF
# [2] = biological target: T1, mouse GCC; test: not described (FIG. 4: ELISA on GCC orthologs)
# [3] = biological target: T2, rat GCC; test: not described (FIG. 4: ELISA on GCC orthologs)
# [4] = biological target: T3, human GCC, full length with myc tag …; test: cell-based or functional assay
binder,measurement,setting,value
B1,MFI at 0.001 µg/ml,[1],500
same,MFI at 0.004 µg/ml,[1],937
same,MFI at 0.016 µg/ml,[1],2460
same,MFI at 0.063 µg/ml,[1],6620
same,MFI at 0.25 µg/ml,[1],7820
same,MFI at 1 µg/ml,[1],8030
same,binding result,[2],no binding
same,binding result,[3],no binding
same,"LD50, indirect cytotoxicity with DM1-conjugated mouse anti-human IgG, 293-GCC#2 cells, WST after 4 days",[4],26 pM
